The test system of data set [1] is Botrytis cinerea isolate (B05.10). As to the kind of experiment: Detached leaf assay (tomato leaflets, lesion size). It counts as in vivo. Particulars: five days post inoculation, vs untreated inoculated control. In a few lines: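 Tomato (Brandywine) detached lateral leaflets were sprayed with treatment in 0.03% Silwet L-77 24 h before inoculation. Two 10 μL drops of 1×10^5 conidia/mL in 7% grape juice were applied per leaflet, which was then incubated at 23 °C, ~75% RH, 12/12 light. Lesion diameter was measured at 5 DPI against the untreated inoculated control, ten replicates.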

For data set [2], the system named is Botrytis cinerea B05.10 isolate. Put plainly: Greenhouse whole plant assay (tomato 'Lanai', disease severity). It counts as in vivo. The note with it: final rating day (rating #3). As for the experimental part:
Plant Tissue: Tomato seedlings, variety “Lanai”, were seeded then thinned to one plant per pot in an 18 cell tray. […] Plants were grown at a 23° C./17° C. day/night temperature with 10 hours of light each 24-hour period. The RH was ambient and plants were fertilized two times a day every day except for Sunday when they received only water. Plants were grown using Fafard brand medium (70-80% sphagnum peat moss, perlite, vermiculite, dolomite limestone and watering agent) for the entire experiment.
Fungal culture. A Botrytis cinerea B05.10 isolate was maintained, and spores were harvested as previously described for detached leaf assays, except a grape juice additive was not used for inoculum preparation.
Treatment of plants. Whole tomato plants were treated ˜24 hours before inoculation using the spray booth. A 0.07% Silwet L-77 solution was used as a spreader and added for a 0.07% final volume in water (Silwet L-77 brand Phyto Technology Laboratories, S7777 Lot #14D7777001 F). The spray booth deck was set to 20″ above the plant canopy and a twinjet 8002EVS nozzle with 100 mesh filter placed into the spray mechanism. The spray boom was calibrated before treatment application with specs as follows: 50 GPA rate, 1.25 MPH speed, 6′ spray length, single pass, and at 45 psi to get a catch of 133 mL in 10 seconds (+/−6 mL). Each treatment was replicated ten times for each experimental run.
Inoculation. Plants were inoculated using a mist-o-matic applicator, which is pressurized by manual pumping. The inoculum suspension was poured into the mist-o-matic immediately before inoculation in the GH space. The containers were only filled half-way and inoculum was applied evenly to the surface of all foliage with even coverage.
Incubation. Plants were incubated inside of a 40″ tall humidity chamber supported by PVC pipe and covered in 3M translucent plastic. A humidifier was inside the chamber and set to low and continuous humidity (filled with tap water). The temperature was D:24-20° C./N:20-18° C. with 15 hours of light, of which 9 hours was with supplemental lighting. RH was ambient and watering occurred everyday by sub-irrigation with the bench being flooded for 10 minutes before draining.
Rating. Tomato plants were rated three times during the two-week experiment with rating starting four days post-inoculation and occurring every three to four days after the initial rating date. Plants were rated for the number of lesions and disease severity, which is the percentage of the plant that was symptomatic including necrotic lesions, pathogen sporulation, and chlorosis.
Data analysis. […] Percent disease severity (%DS) was determined by the percent area of the tomato foliage with symptoms including lesions, chlorosis, necrosis, and wilting. Disease severity was rated at three dates (Rating #) over the 12-day test period. Treatments were compared to the untreated, inoculated control and a chemical standard. Statistical analysis was done using SAS JMP version 13.2.1 with treatments compared to the untreated, inoculated control and a chemical standard using Tukey-Kramer and student's T tests.

Data set [3] concerns Botrytis cinerea conidia. Put plainly: In vitro liquid-based assay (fungal biomass, 96-well plates, Cytation 5). It counts as cell-based. The note with it: co-incubated with conidia for three days, vs untreated control. In a few lines: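 Conidia (5000/mL stock) were co-incubated with dsRNA or control treatments in pH 6.0 minimal medium. Incubation ran 72 h at 23 °C, shaking at 120 rpm under continuous light. Fungal biomass was measured by brightfield imaging (8 slices per well, 2.5× lens) and expressed as average reduction versus control.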

Setting [4] is: 8 g ai/ha, two runs, three-week-old 'Lanai' tomato plant.
Setting [5] is: 25 g ai/ha, two runs, three-week-old 'Lanai' tomato plant.

B1: GS686: dsRNA trigger targeting B. cinerea Bcrrp1 (XM_001550365.2); trigger SEQ ID NO 17, RNA 29, reverse complement 41 (nucleic acid, listed as Botrytis cinerea)
sense: CCCCUCCACCCAAGCACCUUUCUACACCGGAUUCUGGGAAAUCAUGUCCAAAGAAUGGGAACGCAUUGAUGUGCUGCGCAUGGAGAAAUUCCUGCUGCUAGUGAGACGCUAUUUGGCAGCUGGUUUUGAGGUUGUGGUAUCCAGCUCUUCCGCACCUGCGGGAAAGAAAAACAAGACGAAAGCUUCGAAGAAAGUGAUUUCGGAAUCCGGAGAGCAGGUAUUAGAAGUCCUAUCUUCCAUUCCCUGUGGUUCGGGCCCCGAUGCGCAACGCACACCGAAUGGAAUGCGCUUCCACGUAAUCGAUAUCUGGAUCGACGAGCUUGAGAAACUGGGUGUGAUCGACGCAGCGAAGGAGAGUGAAGAGGGCGCUGAGAAAUUAGAGAAAUUACUGGAGCCGUUGAGGAAAUUGGGAAAGGAGAGCAUUAAUAAGACGGUCAGGAAUAAGUGUAAGGAGGC
antisense: GCCUCCUUACACUUAUUCCUGACCGUCUUAUUAAUGCUCUCCUUUCCCAAUUUCCUCAACGGCUCCAGUAAUUUCUCUAAUUUCUCAGCGCCCUCUUCACUCUCCUUCGCUGCGUCGAUCACACCCAGUUUCUCAAGCUCGUCGAUCCAGAUAUCGAUUACGUGGAAGCGCAUUCCAUUCGGUGUGCGUUGCGCAUCGGGGCCCGAACCACAGGGAAUGGAAGAUAGGACUUCUAAUACCUGCUCUCCGGAUUCCGAAAUCACUUUCUUCGAAGCUUUCGUCUUGUUUUUCUUUCCCGCAGGUGCGGAAGAGCUGGAUACCACAACCUCAAAACCAGCUGCCAAAUAGCGUCUCACUAGCAGCAGGAAUUUCUCCAUGCGCAGCACAUCAAUGCGUUCCCAUUCUUUGGACAUGAUUUCCCAGAAUCCGGUGUAGAAAGGUGCUUGGGUGGAGGGG
Turning to B1, the “Average % Reduction in Lesion Size” value in data set [1] (30 ppm) came out at 39.61%; in data set [1] (50 ppm), 33.29%. Besides, the “% control” value in data set [2] (setting [4]) is given as 31%; in data set [2] (setting [5]) it was 14%. Further, the “Average % Reduction in Biomass” value in data set [3] (25 ppm dsRNA) worked out at 16%; in data set [3] (150 ppm dsRNA), 37%.

B2: GS793: dsRNA trigger targeting B. cinerea Bcswd2 (XM_024694665.1); trigger SEQ ID NO 20, RNA 32, reverse complement 44 (nucleic acid, listed as Botrytis cinerea)
sense: CUGCGUCACUAUAUGGUCCUAGACUUUUCAACUCCCUCUUUGAAGCUUACACAACAUCUUGGAAAAGUAUAAAAACAACAACAAGAAACAUGUCGUCAACCCCUAUGGCGAUAGACUCUCCAUUAGGUGCGAAUGGUACUUCCAUGUUGAAAGCAAACGGAGUCUCAUCAGUCCCACAGACUGGCAAACUGACUGAGAUGAUCUCAUUAUACCAUCCAGUCAAGCUUUUCAAACAUCCUCCGACACCUGCAGACAAAGGGCAAACUCCUCCGAGUUACAACUUUAUUCAGUCUAUCAAUUUCAAUGACAAUGGCAGUCAGCUUAUCACGUCAGAAACUGAUAACACUAUGCAAAUAUAUGAUGUUCUCGAAGGAAGACAUUCAAAAAUGAAUAUUAGUGCCAAGUAUGGUUGUAACCAUGCAAUGUUUGGCCAUGCUGAACAUUGUAUAAUCCAUUCUAGUACCAAAAAAGACCACAA
antisense: UUGUGGUCUUUUUUGGUACUAGAAUGGAUUAUACAAUGUUCAGCAUGGCCAAACAUUGCAUGGUUACAACCAUACUUGGCACUAAUAUUCAUUUUUGAAUGUCUUCCUUCGAGAACAUCAUAUAUUUGCAUAGUGUUAUCAGUUUCUGACGUGAUAAGCUGACUGCCAUUGUCAUUGAAAUUGAUAGACUGAAUAAAGUUGUAACUCGGAGGAGUUUGCCCUUUGUCUGCAGGUGUCGGAGGAUGUUUGAAAAGCUUGACUGGAUGGUAUAAUGAGAUCAUCUCAGUCAGUUUGCCAGUCUGUGGGACUGAUGAGACUCCGUUUGCUUUCAACAUGGAAGUACCAUUCGCACCUAAUGGAGAGUCUAUCGCCAUAGGGGUUGACGACAUGUUUCUUGUUGUUGUUUUUAUACUUUUCCAAGAUGUUGUGUAAGCUUCAAAGAGGGAGUUGAAAAGUCUAGGACCAUAUAGUGACGCAG
On to B2, for which the “Average % Reduction in Lesion Size” value is listed as 55.26% in data set [1] (30 ppm) and 57.69% in data set [1] (50 ppm). Besides, the “% control” value in data set [2] (25 g ai/ha, three runs, four-week-old 'Lanai' tomato plant) came to 24%. For the same molecule, the “Average % Reduction in Biomass” value in data set [3] (25 ppm dsRNA) is 13%; in data set [3] (150 ppm dsRNA), 36%.

B3: GS728: dsRNA trigger targeting B. cinerea XM_024691746.1; trigger SEQ ID NO 18, RNA 30, reverse complement 42 (nucleic acid, listed as Botrytis cinerea)
sense: CACAAGAAGCAUGGGGUAUGAAGAGAUAAGUUGUGGCUGGUGAACAACUAAAUCGACAUUUUCCGUCCCCACAGCACCUUUCGAACACUGAAUUCAAUUAAUUAUACACUGUUCCAGUAUCCACUUCCACUUCCACUCCCACAAAACAUACAAUACUACGAUAAUACGAUUUUACGAUAACGUCCAGCCUUGAGGACAACAAGUCAGAUGAAAAUCACGAGAUGGCAUUGUUUUUGAUGUUAGUAAAUGCUAUACCGACGGUAAUCGGCACUGCUGAAGCAUUAGAUGUUCAGAAGAAGGAAGAUUUGGCCCAGAAGCACAAGGCAAAGUUUUUCAUGACGGCGAAUUUUGCUUUGGAUGGAAAGGUUGCUCAUGAAAAAGAAUCACAGGUCGUCCUACGCGAUAACAGGAUGUACUUAAACCACCCAGAUGCGCCGAAAGAAGGACAUCGAUUUUGUGGUUACUAUUUCAUGUAUC
antisense: GAUACAUGAAAUAGUAACCACAAAAUCGAUGUCCUUCUUUCGGCGCAUCUGGGUGGUUUAAGUACAUCCUGUUAUCGCGUAGGACGACCUGUGAUUCUUUUUCAUGAGCAACCUUUCCAUCCAAAGCAAAAUUCGCCGUCAUGAAAAACUUUGCCUUGUGCUUCUGGGCCAAAUCUUCCUUCUUCUGAACAUCUAAUGCUUCAGCAGUGCCGAUUACCGUCGGUAUAGCAUUUACUAACAUCAAAAACAAUGCCAUCUCGUGAUUUUCAUCUGACUUGUUGUCCUCAAGGCUGGACGUUAUCGUAAAAUCGUAUUAUCGUAGUAUUGUAUGUUUUGUGGGAGUGGAAGUGGAAGUGGAUACUGGAACAGUGUAUAAUUAAUUGAAUUCAGUGUUCGAAAGGUGCUGUGGGGACGGAAAAUGUCGAUUUAGUUGUUCACCAGCCACAACUUAUCUCUUCAUACCCCAUGCUUCUUGUG
Regarding B3, the “Average % Reduction in Lesion Size” value is 20.16% in data set [1] (30 ppm) and 16.48% in data set [1] (50 ppm). Moreover, the results for the “% control” value in data set [2] (setting [4]) and in data set [2] (setting [5]) were 27% and 37%, respectively. The figures for the “Average % Reduction in Biomass” value in data set [3] (25 ppm dsRNA) and in data set [3] (150 ppm dsRNA) were 20% and 35%, respectively.

(Values after US20230189818A1, “RNA-BASED CONTROL OF BOTRYTIS” (priority 2021, published 2023).)
